# According to article PMC12172627:
# Read-outs that look alike come from different tables or passages of the source.
# B1: 42-mer dsDNA (2XE2F1_DNA_BS) (dsDNA)
# DNA 1: GCCGTTTTCGCGCTTAAATTTGAGAAAGGGCGCGAAACTGGA
# DNA 2: TCCAGTTTCGCGCCCTTTCTCAAATTTAAGCGCGAAAACGGC
# Columns and labels:
# Assay in all cases: EMSA
# E2F1 full-length [1] = target: T1, E2F1 full-length (human, UniProt Q01094 1-437)
# E2F1 DBD L132E = E2F1 DBD L132E (UniProt Q01094 110-194, L132E)
# E2F1 DBD R166H = E2F1 DBD R166H (UniProt Q01094 110-194, R166H)
# Chain of E2F1 DBD R166H (Q01094 110-194 R166H): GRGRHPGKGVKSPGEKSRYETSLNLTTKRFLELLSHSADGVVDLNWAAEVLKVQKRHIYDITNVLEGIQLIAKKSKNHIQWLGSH
# E2F1 full-length [2] = target: T1, E2F1 full-length; remark: listed apart in the source
# E2F1 full-length [3] = target: T1, E2F1 full-length; remark: listed apart in the source
# T1 sequence (Q01094 whole entry): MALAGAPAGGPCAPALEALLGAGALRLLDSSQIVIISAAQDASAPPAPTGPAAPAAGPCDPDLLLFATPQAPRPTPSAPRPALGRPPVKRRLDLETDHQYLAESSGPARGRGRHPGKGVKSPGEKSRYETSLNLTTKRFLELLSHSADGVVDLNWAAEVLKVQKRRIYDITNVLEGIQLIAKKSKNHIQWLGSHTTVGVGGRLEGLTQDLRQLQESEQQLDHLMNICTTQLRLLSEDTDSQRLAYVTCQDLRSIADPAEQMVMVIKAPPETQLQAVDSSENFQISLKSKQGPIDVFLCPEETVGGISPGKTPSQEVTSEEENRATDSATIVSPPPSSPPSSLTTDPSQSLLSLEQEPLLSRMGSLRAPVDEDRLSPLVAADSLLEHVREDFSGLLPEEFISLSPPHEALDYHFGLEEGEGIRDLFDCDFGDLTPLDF
# Chain of E2F1 DBD L132E (Q01094 110-194 L132E): as the sequence (Q01094 110-194 R166H) above, with L23E, H57R counted along it
binder,measurement,setting,value
AUCGAUUUCCAGCUCGAUCGAUCGAGCUGGAAAUCGAU (structured_RNA) [BS1 double stranded (stem)],binding result,E2F1 full-length [1],binds
AUCGAUUUCCCGCUCGAUCGAUCGAGCGGGAAAUCGAU (structured_RNA) [BS2 double stranded (stem)],binding result,E2F1 full-length [1],binds
B1,binding result,E2F1 DBD L132E,binds
same,binding result,E2F1 DBD R166H,binds
same,binding result,E2F1 full-length [2],binds
AUCGAUUCCCCGCUCGAUCGAUCGAGCGGGGAAUCGAU (structured_RNA) [BS3 double stranded (stem)],binding result,E2F1 full-length [3],binds
AUCGAUUUCCCUCUCGAUCGAUCGAGAGGGAAAUCGAU (structured_RNA) [BS4 double stranded (stem)],binding result,E2F1 full-length [1],binds
